# Assay results: US20240093191A1, “COMPOSITIONS AND METHODS FOR TREATING DISEASE ASSOCIATED WITH DUX4 OVEREXPRESSION” (RESEARCH INSTITUTE AT NATIONWIDE CHILDREN'S HOSPITAL, priority 2021, published 2024)
# B1: H1.mir-675: commercially available H1 promoter mir-675 expression plasmid (SBI Biosciences) (nucleic acid)
# DNA: GAACGCTGACGTCATCAACCCGCTCCAAGGAATCGCGGGCCCAGTGTCACTAGGCGGGAACACCCAGCGCGCGTGCGCCCTGGCAGGAAGATGGCTGTGAGGGACAGGGGAGTGGCGCCCTGCAATATTTGCATGTCGCTATGTGTTCTGGGAAATCACCATAAACGTGAAATGTCTTTGGATTTGGGAATCTTATAAGTTCTGTATGAGACCACCCCCCAGGGTCTGGTGCGGAGAGGGCCCACAGTGGACTTGGTGACGCTGTATGCCCTCACCGCTCAGCCCCTGGGGAATTCTTCGATTCTGCTTTTTT
# B2: U6.mir-675: U6 promoter-driven mir-675 expression plasmid with 40 nt 5' and 47 nt 3' flanking sequences (nucleic acid)
# DNA: GACGCCGCCATCTCTAGGCCCGCGCCGGCCCCCTCGCACAGACTTGTGGGAGAAGCTCGGCTACTCCCCTGCCCCGGTTAATTTGCATATAATATTTCCTAGTAACTATAGAGGCTTAATGTGCGATAAAAGACAGATAATCTGTTCTTTTTAATACTAGCTACATTTTACATGATAGGCTTGGATTTCTATAAGAGATACAAATACTAAATTATTATTTTAAAAAACAGCACAAAAGGAAACTCACCCTAACTGTAAAGTAATTGTGTGTTTTGAGACTATAAATATCCCTTGGAGAAAAGCCTTGTTTGCGTTTAGTGAACCGTCAGATGGTACCGTTTAAACTCGAGCCCAGGGTCTGGTGCGGAGAGGGCCCACAGTGGACTTGGTGACGCTGTATGCCCTCACCGCTCAGCCCCTGGGACTAGAGCGGCCGCCACAGCGGGGAGATCCAGACATGATAAGATACATTTTTT
# What was measured:
# DUX4-mir-675Res = test: Western blot against mir-675-resistant DUX4 construct (CMV.DUX4-mir-675Res) in HEK293 cells; type: cell-based, human; details: FIG. 20; blinded western blot
# Description: Sequence Generation and Cloning. All miRNAs used in this study were designed as previously reported in [Wallace et al., Mol. Ther. Methods Clin. Dev. 8:121-130 (2018)]. All miDUX4s were cloned into the mir-30 based/U6 construct as previously described [Wallace et al., Mol. Ther. 20:1417-23 (2012)]. MicroRNA-675 sequence was obtained from the miRBase database (www.mirbase.org), and all mir-675 constructs used in this study were cloned into an expression plasmid downstream of an RNA polymerase III class of promoters (U6 or H1 promoters). The sequence of the stem loop structure of mir-675, mir-675-5p and mir-675-3p constructs is shown in FIG. 17A-B. The CMV.H19 construct was purchased from OriGene. The psi2-DUX4FI was PCR amplified using the AAV.CMV.DUX44V5 construct as template, and the following primers: forward primer: […] (SEQ ID NO: 127), and reverse primer: […] (SEQ ID NO: 128). The PCR product was then cloned into a previously designed psicheck2 (psi2) SD5 mutant (Renilla luciferase have the SD5 mutant) plasmid [Ansseau et al., Plos One 10: e0118813 (2015)] using XhoI/SpeI restriction sites and the psi2.SD5 mutant-DUX4 3′UTR plasmid backbone. […] In addition, this plasmid contains a cytomegalovirus promoter (CMVp)-driven DUX4 full-length sequence encompassing the DUX4 open reading frame (DUX4 ORF), the DUX4 3′UTR sequence (pLAM sequence). […]
# mir-675-5p = test: Small-transcript northern blot of mir-675 processing in HEK293 cells; type: cell-based, human; details: for mature mir-675-5p bands on northern blot: HEK293, anti-mir-675-5p biotinylated probe
# Description: Small-Transcript Northern Blots. […] (SEQ ID NO: 148)).
Molecule,effect on DUX4 protein level of mir-675-resistant DUX4 construct (DUX4-mir-675Res),mature mir-675-5p produced at 48h versus 24h post-transfection (mir-675-5p),mature mir-675-5p abundance relative to U6.mir-675-generated (mir-675-5p; 24 h post-transfection),mature mir-675-5p abundance relative to U6.mir-675-generated (mir-675-5p; 48 h post-transfection),mature mir-675-5p bands on northern blot (mir-675-5p)
B1,not able to reduce DUX4 protein level,1.4 fold,13 fold,23 fold,abundant levels of the mature mir-675-5p
B2,not able to reduce DUX4 protein level,–,–,–,low levels of the mature mir-675-5p
